Reference: paper PMC7549790

Target: Toll-like receptor 2 (mouse (endogenous in RAW264.7)) (UniProt Q9QUN7)
Chain of UniProt Q9QUN7 (Q9QUN7 25-784): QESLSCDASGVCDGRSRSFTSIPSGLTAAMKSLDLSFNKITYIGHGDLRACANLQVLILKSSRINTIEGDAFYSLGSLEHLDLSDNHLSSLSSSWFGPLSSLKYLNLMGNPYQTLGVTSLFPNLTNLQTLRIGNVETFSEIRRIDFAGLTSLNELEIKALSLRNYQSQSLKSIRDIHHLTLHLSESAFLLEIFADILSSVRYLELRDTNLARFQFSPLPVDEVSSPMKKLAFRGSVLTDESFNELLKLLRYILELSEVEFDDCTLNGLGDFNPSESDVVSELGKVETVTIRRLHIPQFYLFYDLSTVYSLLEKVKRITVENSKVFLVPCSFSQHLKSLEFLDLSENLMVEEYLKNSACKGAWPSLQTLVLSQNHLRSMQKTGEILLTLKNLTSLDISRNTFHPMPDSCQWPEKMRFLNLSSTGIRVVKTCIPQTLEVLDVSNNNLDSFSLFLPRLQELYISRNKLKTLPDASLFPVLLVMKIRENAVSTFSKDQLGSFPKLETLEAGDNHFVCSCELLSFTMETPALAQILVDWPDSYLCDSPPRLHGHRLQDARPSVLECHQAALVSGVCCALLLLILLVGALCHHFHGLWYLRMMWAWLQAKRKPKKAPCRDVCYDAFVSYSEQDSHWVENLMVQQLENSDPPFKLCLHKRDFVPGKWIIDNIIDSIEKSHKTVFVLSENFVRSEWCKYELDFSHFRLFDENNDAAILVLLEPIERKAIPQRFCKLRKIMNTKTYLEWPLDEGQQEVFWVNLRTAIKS

## recombinant Clonorchis sinensis molecular chaperone HscB (natural protein)
  IL-10 secreted by RAW264.7 macrophages stimulated with 5~20 μg/ml rCsHscB for 12 h or 24 h (ELISA); highest at 20 μg/ml for 24 h (fold over DMEM-stimulated cells): > 10
